# Experimental data reported in patent publication US20170072041A1 (OHIO STATE INNOVATION FOUNDATION, published 2017).
# B1: rEtpE-C (recombinant C-terminal region of EtpE/ECH1038, residues 1656-1963, C-terminal histidine-tagged fusion protein) (ligand)
# chain: ELLSLVGGHRNASSNNANNGRSLSQGIRYKITFKISFAQNYFPVDEIIKLQQDANNMEYGVHGVHRTDIIALWSYISYASSKSKWLFKRYQSFAGLLFEIGAWGKCTSAERVFFTSMNRYSEKLPLKVYNFIRKITTGDFARKFSGMQSLYTYKQRVYDYVMHCVLRGGLGGECSDMTLREISNELHKLKQEIYSNYDVFRDLGITNGQQEVLLLINVMMLNYAMSDLLVSTTQVNSMLADVRSSLSRTAHCLPYGTVSQLQRSVSHMKYGEYSNYRASVVALWACISCLASFNDDMEPLIKLMLEGD
# notes: Used renatured on membrane or Ni matrix, or coated on 0.5 um latex beads; also called rEtpE-C-coated beads; not shown: C-terminal histidine tag from pET33b(+)
# What was measured:
# [1] = target: mouse DNase X on wild-type bone marrow-derived macrophages (BMDMs) (mouse) (UniProt Q9D7J6); test: cell-based or functional assay
# [2] = target: T1, human DNase X on the cell surface (HEK293 cells, human primary macrophages derived from peripheral blood … (human, UniProt P49184 19-302)); test: immunofluorescence of non-permeabilised HEK293 cells incubated with coated beads
# T1 construct: whole, on cells; Endogenous protein on non-permeabilised cells; also called cell surface-exposed DNase X; surface DNase X
# T1 sequence: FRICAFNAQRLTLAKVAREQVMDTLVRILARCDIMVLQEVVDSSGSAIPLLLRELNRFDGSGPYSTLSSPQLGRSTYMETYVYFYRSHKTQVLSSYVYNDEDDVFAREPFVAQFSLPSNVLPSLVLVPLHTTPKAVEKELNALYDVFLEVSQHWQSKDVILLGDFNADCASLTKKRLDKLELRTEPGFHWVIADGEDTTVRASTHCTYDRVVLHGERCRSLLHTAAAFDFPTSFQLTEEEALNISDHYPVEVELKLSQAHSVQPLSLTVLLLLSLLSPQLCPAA
# [3] = target: T2, mouse DNase X on wild-type bone marrow-derived macrophages (BMDMs) (mouse, UniProt Q9D7J6 38-314); test: bead binding to BMDMs of wild-type and DNase X-/- mice, 30 min at 4 C
# T2 construct: whole, on cells
# T2 sequence: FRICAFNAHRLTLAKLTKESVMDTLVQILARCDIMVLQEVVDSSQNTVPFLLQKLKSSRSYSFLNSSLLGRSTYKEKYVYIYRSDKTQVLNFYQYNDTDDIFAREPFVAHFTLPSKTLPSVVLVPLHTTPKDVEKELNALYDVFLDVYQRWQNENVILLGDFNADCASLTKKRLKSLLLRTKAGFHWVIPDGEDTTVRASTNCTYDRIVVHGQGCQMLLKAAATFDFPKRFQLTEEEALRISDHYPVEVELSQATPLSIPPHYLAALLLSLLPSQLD
# [4] = target: T3, native human DNase X (deoxyribonuclease 1-like 1) from THP-1 cell lysate (human, UniProt P49184 19-302, limits assumed); test: far-Western blot, THP-1 cell lysate, anti-DNase X
# T3 construct: GPI-anchored cell surface protein; also called DNase 1L1; DN1L1
# T3 sequence (looked up): T1 sequence
Molecule,"decrease in E. chaffeensis binding and entry into BMDMs at 4 h pi, DNase X-/- against wild type [1]",binding result [2],binding result [3],binding result [4]
"native full-length EtpE (ECH1038, entry triggering protein of Ehrlichia) of E. chaffeensis Arkansas (ligand)",60%,–,–,–
B1,–,binds,binds,binds
